{"source": "patent US9200040B2", "about": "“Specific binding agents of human angiopoietin-2” (Amgen Inc., priority 2001, dated 2015)", "molecules": {"B1": {"name": "M-Fc-GGGGGAQQEECEWDPWTCEHMGSGSATGGSGSTASSGSGSATHQEECEWDPWTCEHMLE (protein)", "chain": "M[Fc]GGGGGAQQEECEWDPWTCEHMGSGSATGGSGSTASSGSGSATHQEECEWDPWTCEHMLE"}}, "key": {"[1]": {"system": "VEGF-induced angiogenesis", "assay": "Corneal angiogenesis model", "type": "in vivo", "experimental": "Ang-2 peptibody CON4(C) was evaluated in the corneal model of angiogenesis in rats. Angiogenesis was induced by implanting a VEGF- (or BSA control) soaked nylon disc into the corneal stroma (n=8/group). Peptibody TN8CON4-C was administered by sub-cutaneous injection at 1.0 or 0.1 mg/rat/day for seven days. Two other groups of animals were treated with the same dose of negative control peptibody 4883. All groups were pre-treated with a single loading dose of either 3.0 or 0.3 mg that was three times the maintenance dose of 1.0 or 0.1 mg (see figure). After seven days of treatment, two vascular endpoints were determined from each digital image of the rat cornea: the number of vessels intersecting the mid-point between the disc and the limbus, and the blood vessel area."}, "huAng2": {"molecular_target": "T1, huAng2 (Homo sapiens, UniProt O15123)", "T1 construct": "purchased R&D Systems BNO12103A", "T1 sequence (O15123 68-496 limits assumed)": "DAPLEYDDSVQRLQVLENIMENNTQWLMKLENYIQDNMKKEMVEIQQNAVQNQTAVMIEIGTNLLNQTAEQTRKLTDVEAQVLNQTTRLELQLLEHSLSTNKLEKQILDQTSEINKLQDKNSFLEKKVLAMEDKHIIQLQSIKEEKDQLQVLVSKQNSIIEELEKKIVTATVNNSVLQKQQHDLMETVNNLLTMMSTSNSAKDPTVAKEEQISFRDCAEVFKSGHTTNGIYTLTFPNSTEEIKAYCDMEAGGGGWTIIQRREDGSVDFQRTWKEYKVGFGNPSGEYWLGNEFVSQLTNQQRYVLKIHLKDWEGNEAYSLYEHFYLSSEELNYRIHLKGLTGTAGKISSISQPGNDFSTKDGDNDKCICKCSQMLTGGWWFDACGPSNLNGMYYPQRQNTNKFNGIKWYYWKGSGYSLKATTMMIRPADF", "assay": "BIAcore binding to huAng2 (Example 9)", "settings": "Table 8", "experimental": "Six samples of anti-Ang2 peptibodies were tested for their binding activity to huAng2 (R&D Systems, BNO12103A) on BIAcore. Protein G was immobilized to a CM5 chip according to the standard amine-coupling protocol (BIAcore Inc.), and the peptibodies were then injected over a protein G surface for capturing (RL˜100 Ru). To test binding between hAng2 and the captured peptibody, 0.3 nM to 40 nM of huAng2 was injected over the captured peptibody surfaces, and binding sensorgrams were analyzed using BIAevaluation 3.0 (BIAcore Inc.)."}, "A431 tumor": {"system": "A431 tumor", "settings": "p<0.0001", "procedure": "The doses of peptibody used were 1000, 200, 40 and 8 ug/mouse/day. A total of 20 doses was given to all animals. Tumor volumes and body weights were recorded three times/week. At the end of the study, animals were sacrificed, and their sera were collected for measuring peptibody levels by ELISA. Tumors and a panel of normal tissues were collected from all groups.\nFemale nude mice were injected subcutaneously with 1×10^7 A431 cells on study day 0."}, "mAng-2": {"molecular_target": "T2, mAng-2 (Mus musculus, UniProt O35608)", "T2 construct": "made in house", "T2 sequence (O35608 19-496)": "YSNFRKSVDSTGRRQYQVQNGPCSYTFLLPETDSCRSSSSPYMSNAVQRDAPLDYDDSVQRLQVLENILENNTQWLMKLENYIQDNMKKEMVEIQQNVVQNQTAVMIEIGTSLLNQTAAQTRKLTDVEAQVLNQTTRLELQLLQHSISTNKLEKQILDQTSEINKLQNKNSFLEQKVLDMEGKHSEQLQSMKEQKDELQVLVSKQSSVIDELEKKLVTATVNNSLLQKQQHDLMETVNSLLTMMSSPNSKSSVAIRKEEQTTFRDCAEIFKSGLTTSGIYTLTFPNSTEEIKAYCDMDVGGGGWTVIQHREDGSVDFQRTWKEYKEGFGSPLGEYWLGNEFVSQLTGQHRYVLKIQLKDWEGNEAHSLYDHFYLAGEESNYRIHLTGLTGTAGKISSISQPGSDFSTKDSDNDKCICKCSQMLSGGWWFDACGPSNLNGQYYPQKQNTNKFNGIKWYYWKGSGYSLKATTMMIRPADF", "assay": "Affinity BIAcore (Example 2)", "type": "binding, murine", "settings": "Table 6", "experimental": "(§1) Binding assays were carried out by first capturing about 100 Ru of each candidate anti-Ang-2 peptibody to the immobilized Protein G, after which various concentrations (0-100 nM) of huAng-2 or mAng-2 were injected over the bound antibody surface at a flow rate of 50 μl/min for 3 minutes. Peptibody binding kinetic parameters including ka (association rate constant), kd (dissociation rate constant) and KD (dissociation equilibrium constant) were determined using the BIA evaluation 3.1 computer program (Biacore, Inc.). Lower dissociation equilibrium constants indicated greater affinity of the peptibody for Ang-2."}, "hAng-1 [2]": {"molecular_target": "T3, hAng-1 (Homo sapiens, UniProt Q15389)", "T3 sequence (Q15389 16-498)": "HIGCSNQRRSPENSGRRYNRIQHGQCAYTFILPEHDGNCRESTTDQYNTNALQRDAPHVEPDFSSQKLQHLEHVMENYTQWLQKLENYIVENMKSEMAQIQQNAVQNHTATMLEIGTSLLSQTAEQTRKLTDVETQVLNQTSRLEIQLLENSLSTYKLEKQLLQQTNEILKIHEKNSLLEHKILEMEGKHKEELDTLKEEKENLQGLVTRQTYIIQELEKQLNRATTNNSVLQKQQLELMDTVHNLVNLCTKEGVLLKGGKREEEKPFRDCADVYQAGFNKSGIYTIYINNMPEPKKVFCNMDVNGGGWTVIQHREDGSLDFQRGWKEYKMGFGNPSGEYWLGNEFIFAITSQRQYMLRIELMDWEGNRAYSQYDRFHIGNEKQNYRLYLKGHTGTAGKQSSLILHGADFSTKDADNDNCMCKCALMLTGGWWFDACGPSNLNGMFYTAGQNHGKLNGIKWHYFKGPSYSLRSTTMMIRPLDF", "assay": "Neutralization ELISA (Example 2)", "type": "binding", "settings": "Table 5; about 1 nM Tie-2-Fc"}, "hAng-1 [3]": {"molecular_target": "T3, hAng-1", "assay": "Affinity ELISA", "type": "binding", "settings": "Table 5"}, "hAng-2": {"molecular_target": "T4, hAng-2 (Homo sapiens, UniProt O15123)", "T4 construct": "conditioned media of human 293T cells transfected with full length human Ang-2 DNA; made in house; host or cells: conditioned media", "T4 sequence (O15123 19-496)": "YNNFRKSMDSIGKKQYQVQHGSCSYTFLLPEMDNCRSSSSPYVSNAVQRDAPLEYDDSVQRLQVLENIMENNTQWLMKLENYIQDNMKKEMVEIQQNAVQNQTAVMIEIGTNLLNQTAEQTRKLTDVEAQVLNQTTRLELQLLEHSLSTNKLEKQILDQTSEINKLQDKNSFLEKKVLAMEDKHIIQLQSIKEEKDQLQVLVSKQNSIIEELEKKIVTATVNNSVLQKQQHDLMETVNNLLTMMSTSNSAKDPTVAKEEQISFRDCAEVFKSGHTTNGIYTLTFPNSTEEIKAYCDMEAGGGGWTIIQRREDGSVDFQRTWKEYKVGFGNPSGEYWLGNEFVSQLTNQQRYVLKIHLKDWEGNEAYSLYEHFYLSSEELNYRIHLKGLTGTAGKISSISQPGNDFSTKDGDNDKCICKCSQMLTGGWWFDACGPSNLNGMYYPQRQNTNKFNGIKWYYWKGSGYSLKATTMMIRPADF", "assay": "Affinity BIAcore (Example 2)", "type": "binding", "settings": "Table 6", "experimental": "as §1"}, "Colo-205 tumor": {"system": "Colo-205 tumor", "experimental": "Female nude mice were injected subcutaneously with 2×10^6 Colo-205 cells plus Matrigel (2:1) on study day 0. At day 3, the Ang-2 peptibodies L1-7-N, L1-21-N, Con4-C, and 2×Con4-C were administered subcutaneously at the dose of […], twice a week.\nFemale nude mice were injected subcutaneously with 2×10^6 Colo-205 cells plus Matrigel (2:1) on study day 0.\nFemale nude mice were injected subcutaneously with 2×10^6 Colo-205 cells plus Matrigel (2:1) on study day 0. At day 3, Ang-2 peptibody 2×Con4-C or control peptibody were administered subcutaneously at the dose of 350 μg/day. Tumors from groups treated with control peptibody (as described in Table 5) were harvested either at Day 14 (size-matched control) or Day 18 (time-matched control). Tumors from 2×Con4(C) treated group were then harvested at Day 18. Tumor volumes were recorded at regular intervals, as shown.\nFemale nude mice were injected subcutaneously with 2×10^6 Colo-205 cells plus Matrigel (2:1) on study day 0. Treatment with 350 μg/mouse, s.c. twice a week, of the Ang-2 peptibody 2×Con4-C, or equivalent control peptibody started either at study day 3, 10 or 15. […] The results are set forth in FIG. 8 (body weights not shown).\nFemale nude mice were injected subcutaneously with 2×10^6 Colo-205 cells plus Matrigel (2:1) on study day 0. At study day 14, treatments were started with a) 350 μg/mouse, s.c. twice a week, of the Ang-2 peptibody 2×Con4-C, b) 20 mg/kg qwx3 i.p. of taxotere, or c) a combination of both.\nFemale nude mice were injected subcutaneously with 2×10^6 Colo-205 cells plus Matrigel (2:1) on study day 0. At study day 14 started treatments with a) 350 μg/mouse, s.c. twice a week, of the Ang-2 peptibody 2×Con4-C, b) 50 mg/kg qdx5 i.p. of 5-FU, or c) a combination of both."}}, "note": "Entries after “also recorded” stand apart in the source; their conditions may differ. Like-named read-outs stand apart in the source and are kept apart here. Primed or numbered codes have the meaning given here. Where no end group is shown, it is not given here. [ ]: non-standard residue; d: D form. Fc(5) = non-antigen-binding fragment of an antibody (vehicle) fused to the peptide"}
{"molecule": "M-Fc-GGGGGAQQEECEWDPWTCEHMLE (M[Fc]GGGGGAQQEECEWDPWTCEHMLE; cysteine pairing not given here) [Con4 (C)]", "values": [{"measurement": "overt toxicity based on body weights", "setting": "[1]; 1.0 or 0.1 mg/rat/day s.c. for seven days", "value": "no evidence of overt toxicity"}, {"measurement": "VEGF-induced angiogenesis (number of vessels, blood vessel area)", "setting": "[1]; s.c. 1.0 or 0.1 mg/rat/day for seven days after loading dose 3.0 or 0.3 mg, p<0.04", "value": "significantly inhibited VEGF-induced angiogenesis in a dose-dependent manner"}, {"measurement": "ka", "setting": "huAng2", "value": 530000, "unit": "M⁻¹ s⁻¹"}, {"measurement": "kd", "setting": "huAng2", "value": 0.0002, "unit": "s⁻¹"}, {"measurement": "tumor growth vs. vehicle control", "setting": "A431 tumor; s.c. once per day, 1000, 200, 40 and 8 ug/mouse/day, 20 doses", "value": "inhibited tumor growth"}]}
{"molecule": "MGAQQEECEWDPWTCEHMLEGGGGG-Fc (MGAQQEECEWDPWTCEHMLEGGGGG-{Fc(5)}; not fully specified (bridges); printed as MGAQQEECEWDPWTCEHMLEGGGGG-Fc; cysteine pairing not given here) [Con4 (N)]", "values": [{"measurement": "mAng-2 ka", "setting": "mAng-2", "value": 730000, "unit": "M⁻¹ s⁻¹"}, {"measurement": "mAng-2 kd", "setting": "mAng-2", "value": 0.00044, "unit": "s⁻¹"}, {"measurement": "hAng-1 IC 50", "setting": "hAng-1 [2]", "value": "No In-"}, {"measurement": "hAng-1 EC 50", "setting": "hAng-1 [3]", "value": "No"}, {"measurement": "hAng-2 ka", "setting": "hAng-2", "value": 330000, "unit": "M⁻¹ s⁻¹"}, {"measurement": "hAng-2 kd", "setting": "hAng-2", "value": 0.00022, "unit": "s⁻¹"}]}
{"molecule": "B1", "values": [{"measurement": "ka", "setting": "huAng2", "value": 480000, "unit": "M⁻¹ s⁻¹"}, {"measurement": "kd", "setting": "huAng2", "value": 0.00016, "unit": "s⁻¹"}, {"measurement": "tumor growth vs. vehicle control and control peptibody", "setting": "A431 tumor; 200 μg/mouse/day s.c. from day 3", "value": "Significant differences in tumor growth"}, {"measurement": "body weights", "setting": "Colo-205 tumor; Example 15", "value": "no significant effect on body weights"}, {"measurement": "tumor growth vs. vehicle control and control peptibody", "setting": "Colo-205 tumor; Example 15: s.c. 14, 2.8 and 0.56 μg/mouse twice a week, p=0.003 intermediate dose, p<0.0001 high dose", "value": "Significant differences in tumor growth were observed between the two higher doses"}, {"measurement": "body weight", "setting": "Colo-205 tumor; Example 16", "value": "no significant effect on body weight"}, {"measurement": "tumor growth vs. time-matched control group", "setting": "Colo-205 tumor; Example 16: s.c. 350 μg/day from day 3, harvested Day 18, p=0.0154", "value": "Significant differences in tumor growth"}, {"measurement": "body weights", "setting": "Colo-205 tumor; Example 17", "value": "no significant effect on body weights"}, {"measurement": "tumor growth vs. vehicle control", "setting": "Colo-205 tumor; Example 17: 350 μg/mouse s.c. twice a week started at study day 3, 10 or 15, p=0.089 day 15 group, p<0.0001 day 3 and 10 groups, listed as 2×Con4-C", "value": "capable of inhibiting Colo205 tumor growth irrespective of when dosing begins; also recorded: Significant differences in tumor growth"}, {"measurement": "body weights", "setting": "Colo-205 tumor; Example 19a", "value": "no significant effect on body weights"}, {"measurement": "tumor growth vs. vehicle control", "setting": "Colo-205 tumor; Example 19a, from study day 14: 2×Con4-C 350 μg/mouse s.c. twice a week, taxotere 20 mg/kg qwx3 i.p., or both, p<0.0001", "value": "Significant differences in tumor growth"}, {"measurement": "tumor growth vs. vehicle control", "setting": "Colo-205 tumor; Example 19b, from study day 14: 2×Con4-C 350 μg/mouse s.c. twice a week, 5-FU 50 mg/kg qdx5 i.p., or both, p<0.0001", "value": "Significant differences in tumor growth"}]}
